Experimental data published in the supplement of paper PMC10065799, “High-throughput profiling of sequence recognition by tyrosine kinases and SH2 domains using bacterial peptide display” (eLife, 2023).

Key:
FGFR1 = FGFR1 (UniProt P11362); experiment: phosphorylation enrichment, bacterial display (enrichment ratio); higher = better substrate or ligand; peptides without Tyr show the background
MERTK = MERTK (UniProt Q12866); experiment: as above
Fyn = Fyn (UniProt P06241); experiment: as above
AncSZ = experiment: as above
c-Src = experiment: as above
Jak2 = Jak2 (UniProt O60674); experiment: as above
EPHB1 = EPHB1 (UniProt P54762); experiment: as above
Fer (mouse) = experiment: as above
Fes = Fes (UniProt P07332); experiment: as above
Hck = Hck (UniProt P08631); experiment: as above
FGFR3 = FGFR3 (UniProt P22607); experiment: as above
c-Abl (mouse) = experiment: as above
EPHB2 = EPHB2 (UniProt P29323); experiment: as above
SHP2-C SH2 = experiment: SH2 binding enrichment of the phosphorylated peptide, bacterial display (enrichment ratio); higher = better substrate or ligand; peptides without Tyr show the background
Grb2 SH2 = Grb2 SH2 (UniProt P62993); experiment: as above
c-Src SH2 = experiment: as above
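Wherever SH2 binding enrichment of the phosphorylated peptide, bacterial display is given: peptide library displayed on the E. coli surface as eCPX fusions, selected cells deep-sequenced, score is each peptide's frequency after selection divided by its frequency in the input.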
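Wherever phosphorylation enrichment, bacterial display is given: 11-residue human phosphosite peptides and single-mutation variants displayed on the E. coli surface, counted by deep sequencing, each peptide's frequency after selection divided by its frequency in the unselected input library; frequency after pTyr selection over input frequency; kinase dosed for 20-30% of maximal phosphorylation in three min.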

Chain of Fes (P07332 whole entry, looked up): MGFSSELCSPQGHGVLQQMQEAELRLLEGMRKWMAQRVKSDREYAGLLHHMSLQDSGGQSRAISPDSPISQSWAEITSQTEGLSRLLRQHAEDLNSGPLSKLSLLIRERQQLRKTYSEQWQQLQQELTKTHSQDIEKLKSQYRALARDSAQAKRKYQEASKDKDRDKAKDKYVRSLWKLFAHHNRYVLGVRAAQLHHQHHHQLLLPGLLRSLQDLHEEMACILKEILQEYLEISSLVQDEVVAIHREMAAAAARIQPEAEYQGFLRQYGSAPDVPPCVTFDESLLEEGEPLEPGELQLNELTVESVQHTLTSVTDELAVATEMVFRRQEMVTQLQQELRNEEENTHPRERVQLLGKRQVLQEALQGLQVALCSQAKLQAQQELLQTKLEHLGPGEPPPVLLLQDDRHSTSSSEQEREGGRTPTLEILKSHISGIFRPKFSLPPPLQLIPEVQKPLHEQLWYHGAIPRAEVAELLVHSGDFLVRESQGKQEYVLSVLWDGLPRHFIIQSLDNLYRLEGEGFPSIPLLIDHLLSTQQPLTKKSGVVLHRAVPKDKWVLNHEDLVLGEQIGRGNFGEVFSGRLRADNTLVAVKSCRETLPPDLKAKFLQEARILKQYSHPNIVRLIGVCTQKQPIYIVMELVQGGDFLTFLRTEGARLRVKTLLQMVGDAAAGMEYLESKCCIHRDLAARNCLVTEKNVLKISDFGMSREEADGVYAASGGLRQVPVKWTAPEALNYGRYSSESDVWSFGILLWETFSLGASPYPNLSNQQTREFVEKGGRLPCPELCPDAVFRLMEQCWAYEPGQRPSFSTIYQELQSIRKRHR
Chain of EPHB1 (P54762 whole entry, looked up): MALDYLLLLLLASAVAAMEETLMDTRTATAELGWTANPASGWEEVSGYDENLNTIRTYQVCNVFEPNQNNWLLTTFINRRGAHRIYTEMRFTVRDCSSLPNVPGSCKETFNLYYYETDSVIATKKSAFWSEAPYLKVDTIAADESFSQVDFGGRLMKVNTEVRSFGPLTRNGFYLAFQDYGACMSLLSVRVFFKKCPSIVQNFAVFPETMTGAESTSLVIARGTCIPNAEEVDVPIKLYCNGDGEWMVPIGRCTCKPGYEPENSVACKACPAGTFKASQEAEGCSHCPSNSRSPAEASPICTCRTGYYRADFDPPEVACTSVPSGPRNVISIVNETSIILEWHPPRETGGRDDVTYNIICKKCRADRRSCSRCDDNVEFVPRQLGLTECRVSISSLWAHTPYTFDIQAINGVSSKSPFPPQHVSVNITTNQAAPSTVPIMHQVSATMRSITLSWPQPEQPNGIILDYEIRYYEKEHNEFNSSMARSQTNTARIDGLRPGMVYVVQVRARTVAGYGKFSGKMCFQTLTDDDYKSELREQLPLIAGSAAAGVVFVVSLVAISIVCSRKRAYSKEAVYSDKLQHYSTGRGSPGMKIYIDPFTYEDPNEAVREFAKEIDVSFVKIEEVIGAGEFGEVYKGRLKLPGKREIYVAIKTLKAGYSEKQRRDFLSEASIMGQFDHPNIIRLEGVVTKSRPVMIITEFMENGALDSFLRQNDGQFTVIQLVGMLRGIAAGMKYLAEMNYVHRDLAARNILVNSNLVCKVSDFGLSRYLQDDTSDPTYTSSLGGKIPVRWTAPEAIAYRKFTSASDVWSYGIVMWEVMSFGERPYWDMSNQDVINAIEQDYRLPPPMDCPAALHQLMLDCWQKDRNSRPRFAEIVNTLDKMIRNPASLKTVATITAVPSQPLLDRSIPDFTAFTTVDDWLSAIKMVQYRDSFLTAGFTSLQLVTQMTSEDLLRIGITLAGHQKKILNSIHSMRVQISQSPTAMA
Chain of Jak2 (O60674 whole entry, looked up): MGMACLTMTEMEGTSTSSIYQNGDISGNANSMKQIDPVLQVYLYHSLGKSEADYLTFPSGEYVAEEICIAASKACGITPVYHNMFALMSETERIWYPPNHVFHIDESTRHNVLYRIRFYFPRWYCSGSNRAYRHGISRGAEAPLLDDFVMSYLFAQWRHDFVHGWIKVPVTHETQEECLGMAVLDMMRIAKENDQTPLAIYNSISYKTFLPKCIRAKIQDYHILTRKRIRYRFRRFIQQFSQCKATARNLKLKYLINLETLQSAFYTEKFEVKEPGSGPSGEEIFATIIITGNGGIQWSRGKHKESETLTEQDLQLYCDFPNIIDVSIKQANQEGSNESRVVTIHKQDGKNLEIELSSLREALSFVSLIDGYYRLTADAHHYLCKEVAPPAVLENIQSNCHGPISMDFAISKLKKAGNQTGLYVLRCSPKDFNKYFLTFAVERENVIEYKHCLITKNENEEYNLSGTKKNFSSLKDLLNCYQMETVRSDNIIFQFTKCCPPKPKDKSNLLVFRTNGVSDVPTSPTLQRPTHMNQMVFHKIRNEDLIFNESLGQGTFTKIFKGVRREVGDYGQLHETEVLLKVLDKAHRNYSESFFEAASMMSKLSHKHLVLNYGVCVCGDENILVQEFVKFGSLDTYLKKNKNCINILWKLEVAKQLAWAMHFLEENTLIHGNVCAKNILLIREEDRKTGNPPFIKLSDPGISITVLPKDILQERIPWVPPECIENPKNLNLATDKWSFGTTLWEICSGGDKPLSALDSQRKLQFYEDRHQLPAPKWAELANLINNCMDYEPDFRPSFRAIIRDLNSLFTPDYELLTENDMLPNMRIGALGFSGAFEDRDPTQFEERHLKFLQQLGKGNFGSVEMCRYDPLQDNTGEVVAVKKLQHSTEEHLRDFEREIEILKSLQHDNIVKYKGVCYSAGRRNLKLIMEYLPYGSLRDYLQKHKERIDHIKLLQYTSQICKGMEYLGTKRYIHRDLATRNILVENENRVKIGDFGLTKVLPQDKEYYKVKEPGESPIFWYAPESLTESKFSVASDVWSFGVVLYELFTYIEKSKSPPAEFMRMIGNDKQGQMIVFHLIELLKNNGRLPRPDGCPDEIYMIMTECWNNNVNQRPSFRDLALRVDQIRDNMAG
Chain of Fyn (P06241 whole entry, looked up): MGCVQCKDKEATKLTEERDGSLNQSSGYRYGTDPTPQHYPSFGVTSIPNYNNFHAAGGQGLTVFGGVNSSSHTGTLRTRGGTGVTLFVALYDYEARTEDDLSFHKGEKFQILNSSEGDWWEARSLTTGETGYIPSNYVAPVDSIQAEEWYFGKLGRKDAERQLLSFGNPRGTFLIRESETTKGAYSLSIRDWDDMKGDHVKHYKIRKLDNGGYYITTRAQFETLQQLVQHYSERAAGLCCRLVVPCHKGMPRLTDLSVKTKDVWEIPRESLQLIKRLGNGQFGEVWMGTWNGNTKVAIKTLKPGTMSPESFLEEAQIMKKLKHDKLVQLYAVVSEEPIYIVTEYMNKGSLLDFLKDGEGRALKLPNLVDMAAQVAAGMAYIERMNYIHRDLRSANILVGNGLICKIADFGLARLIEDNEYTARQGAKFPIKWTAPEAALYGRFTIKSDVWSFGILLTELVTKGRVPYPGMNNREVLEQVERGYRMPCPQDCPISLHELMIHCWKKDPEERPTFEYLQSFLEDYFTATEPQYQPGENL
Chain of MERTK (Q12866 whole entry, looked up): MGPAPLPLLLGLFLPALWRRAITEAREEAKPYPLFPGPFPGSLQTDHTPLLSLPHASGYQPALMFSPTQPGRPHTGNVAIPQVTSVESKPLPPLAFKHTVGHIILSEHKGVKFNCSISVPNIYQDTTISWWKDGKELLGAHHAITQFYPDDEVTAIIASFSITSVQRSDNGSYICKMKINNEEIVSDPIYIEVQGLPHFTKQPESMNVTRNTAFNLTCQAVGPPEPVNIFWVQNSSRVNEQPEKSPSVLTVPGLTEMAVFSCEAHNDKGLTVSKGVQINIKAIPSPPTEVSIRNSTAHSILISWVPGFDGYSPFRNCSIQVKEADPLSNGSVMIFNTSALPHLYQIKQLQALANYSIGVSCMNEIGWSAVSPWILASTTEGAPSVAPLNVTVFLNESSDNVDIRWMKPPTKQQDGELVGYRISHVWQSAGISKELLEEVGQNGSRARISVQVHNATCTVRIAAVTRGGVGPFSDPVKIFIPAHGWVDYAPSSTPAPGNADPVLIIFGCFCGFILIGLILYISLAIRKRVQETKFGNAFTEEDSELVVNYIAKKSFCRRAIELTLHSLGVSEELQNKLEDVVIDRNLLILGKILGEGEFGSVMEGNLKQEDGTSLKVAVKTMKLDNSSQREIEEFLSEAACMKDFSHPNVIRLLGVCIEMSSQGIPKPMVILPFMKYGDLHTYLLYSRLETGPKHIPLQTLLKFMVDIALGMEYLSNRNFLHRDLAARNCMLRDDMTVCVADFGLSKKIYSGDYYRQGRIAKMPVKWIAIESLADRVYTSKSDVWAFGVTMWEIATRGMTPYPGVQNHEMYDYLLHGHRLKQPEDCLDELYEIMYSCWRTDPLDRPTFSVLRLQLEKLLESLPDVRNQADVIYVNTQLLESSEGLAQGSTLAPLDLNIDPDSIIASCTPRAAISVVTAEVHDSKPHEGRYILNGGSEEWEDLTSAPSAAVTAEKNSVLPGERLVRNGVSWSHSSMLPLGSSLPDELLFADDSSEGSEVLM
Chain of Hck (P08631 whole entry, looked up): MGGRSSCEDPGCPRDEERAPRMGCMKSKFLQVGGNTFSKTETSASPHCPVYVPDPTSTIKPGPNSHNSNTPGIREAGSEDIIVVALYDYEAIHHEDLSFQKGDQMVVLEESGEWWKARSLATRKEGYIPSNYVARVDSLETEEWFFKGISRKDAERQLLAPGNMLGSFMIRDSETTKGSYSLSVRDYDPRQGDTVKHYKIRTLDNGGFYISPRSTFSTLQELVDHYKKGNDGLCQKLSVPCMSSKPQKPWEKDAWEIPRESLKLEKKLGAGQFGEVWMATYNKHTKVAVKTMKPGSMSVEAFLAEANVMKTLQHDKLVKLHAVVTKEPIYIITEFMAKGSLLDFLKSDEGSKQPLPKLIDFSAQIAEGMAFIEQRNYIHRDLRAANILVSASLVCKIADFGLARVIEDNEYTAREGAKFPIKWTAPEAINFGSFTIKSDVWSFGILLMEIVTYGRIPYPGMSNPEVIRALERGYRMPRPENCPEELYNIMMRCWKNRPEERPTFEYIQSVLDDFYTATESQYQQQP

Row | SH2 binding enrichment (SHP2-C SH2) | SH2 binding enrichment (Grb2 SH2) | SH2 binding enrichment (c-Src SH2) | Sequence | phosphorylation enrichment (FGFR1) | phosphorylation enrichment (MERTK) | phosphorylation enrichment (Fyn) | phosphorylation enrichment (AncSZ) | phosphorylation enrichment (c-Src) | phosphorylation enrichment (Jak2) | phosphorylation enrichment (EPHB1) | phosphorylation enrichment (Fer (mouse)) | phosphorylation enrichment (Fes) | phosphorylation enrichment (Hck) | phosphorylation enrichment (FGFR3) | phosphorylation enrichment (c-Abl (mouse)) | phosphorylation enrichment (EPHB2)
1 | 0.755 | 0.666 | 0.571 | GNLLIYTKFGK [HGD_Y166_E168K] | 0.572 | 0.991 | 1.46 | 1.31 | 2.02 | 1.26 | 0.921 | 0.532 | 1.28 | 1.36 | 0.788 | 1.5 | 0.666
2 | 0.998 | 0.99 | 0.598 | GRMLQYLTVND [PPFIBP2_Y663_R658G] | 0.51 | 0.319 | 0.401 | 0.792 | 0.436 | 0.811 | 0.52 | 0.42 | 0.97 | 0.489 | 0.575 | 0.593 | 0.477

Further lines, the sequence ahead of its results:

Row | Sequence | SH2 binding enrichment (SHP2-C SH2) | SH2 binding enrichment (Grb2 SH2) | SH2 binding enrichment (c-Src SH2) | phosphorylation enrichment (FGFR1) | phosphorylation enrichment (MERTK) | phosphorylation enrichment (Fyn) | phosphorylation enrichment (AncSZ) | phosphorylation enrichment (c-Src) | phosphorylation enrichment (Jak2) | phosphorylation enrichment (EPHB1) | phosphorylation enrichment (Fer (mouse)) | phosphorylation enrichment (Fes) | phosphorylation enrichment (Hck) | phosphorylation enrichment (FGFR3) | phosphorylation enrichment (c-Abl (mouse)) | phosphorylation enrichment (EPHB2)
3 | GPIFRYDLGGA [CYP11B1_Y81] | 0.859 | 0.97 | 0.518 | 0.432 | 0.345 | 0.45 | 0.777 | 0.394 | 0.568 | 0.478 | 0.466 | 0.822 | 0.357 | 0.433 | 0.497 | 0.431
4 | GPKFVYDEIDN [ACOX1_Y232_G231V] | 0.653 | 0.709 | 24.5 | 0.482 | 0.413 | 0.537 | 1.1 | 0.514 | 0.92 | 0.505 | 0.409 | 1.04 | 0.467 | 0.57 | 0.652 | 0.556
5 | GQRDLYSGLNE [CD3E_Y199_Q204E] | 0.64 | 0.878 | 0.724 | 0.555 | 2.58 | 4.4 | 1.23 | 5.28 | 0.716 | 1.12 | 1.94 | 0.89 | 9.08 | 0.653 | 0.566 | 1.3
6 | GRSTYYWPSPR [GAGE12J_Y10_R13S] | 0.923 | 1.12 | 0.898 | 7.32 | 17 | 6.75 | 1.78 | 7.28 | 7.45 | 10.5 | 1.44 | 0.796 | 7.41 | 5.22 | 6.32 | 11.1
7 | GTATAYLCRVK [ALPL_Y117_G120R] | 0.771 | 1.07 | 0.525 | 0.471 | 0.363 | 0.404 | 0.678 | 0.399 | 0.578 | 0.48 | 0.517 | 0.804 | 0.389 | 0.514 | 0.595 | 0.506
